Consider two substances from publication PMC3999280.

Data set [1] has as its target LdtRLas (LdtR from 'Candidatus Liberibacter asiaticus', […]_01180) ('Candidatus Liberibacter asiaticus' str. psy62). The experiment in a line: SEC. (In general: In gel filtration, larger molecules generally elute earlier.)
The target of data set [2] is LdtRLas ('Candidatus Liberibacter asiaticus') (UniProt A0ABN4AZS1). The experiment in a line: EMSA. The note with it: EMSA: 50 mM Tris-HCl pH 7.2, 150 mM KCl, 10 mM MgCl2, 0.01% Triton X-100, 12.5 ng/uL each poly(dI-dC) and poly(dA-dT), 1 ng probe in 20 uL, 20 min at 37 C; 6% …. (In general: A gel shift assay detects complexes by their altered migration in electrophoresis.)

Regarding “LdtRLas (LdtR from 'Candidatus Liberibacter asiaticus', […]_01180) (natural protein)”, the stoichiometry N in data set [1] worked out at 2.
PldtP (PldtPLas) yielded a K half in data set [2] of 100 nM.

Usually stoichiometry N stands for the number of molecules, sites or subunits per partner or assembly.
